Reference: US20240360228A1 (BIOLEGEND, published 2024)

Assays:
[1] = molecular target: T1, human CCR8 (human, UniProt P51685 1-355); experiment: flow blocking, PBMC CCR8+CD3+; competitor PE-AB5
T1 construct: Native CCR8 on human PBMC (CCR8+ CD3+ or CCR8+ CD4+ lymphocytes); also called chemokine (C-C motif) receptor 8
Protocol: (§1) For blocking studies, 100 μL of the cell suspension were incubated with 10 μg purified isotype control, AB1, AB2, AB3, AB4, AB5, AB8, AB9, AB10, AB11, AB12, AB13, AB14, AB15, and Commercial ABI antibodies, or isotype control, as blocking agents.
(§2) After incubation with the blocking agent, the cells were incubated with 0.25 μg of the indicated PE-conjugated antibody plus anti-human CD4 APC or anti-human CD3 for another 15 minutes in the dark and then washed 2 times with Cell Staining Buffer, and acquired in a FACSCanto II flow cytometer (BD Biosciences); the data was analyzed using FCS Express (De Novo Software); MFI correspond to the CCR8+ CD4+ lymphocytes or CCR8+ CD3+ lymphocytes.
(§3) Percentage original MFI was calculated by dividing the MFI of samples blocked with AB1, AB2, AB3, AB4, AB5, AB6, AB7, AB8, AB9, AB10, AB11, AB12, AB13, AB14, AB15, and Commercial ABI antibodies, by the MFI of samples blocked with the corresponding isotype control. This value was subtracted from 100 to get a blocking percentage. The formula is shown below: […]

[2] = molecular target: T1, human CCR8; experiment: flow blocking, PBMC CCR8+CD3+; competitor PE-AB6
Protocol: as §1, §2, §3

[3] = molecular target: T1, human CCR8; experiment: flow blocking, PBMC CCR8+CD3+; competitor PE-AB7
Protocol: as §1, §2, §3

[4] = molecular target: T1, human CCR8; experiment: flow blocking, PBMC CCR8+CD3+; competitor PE-AB8
Protocol: as §1, §2, §3

[5] = molecular target: T1, human CCR8; experiment: flow blocking, PBMC CCR8+CD4+; competitor PE-AB1
Summary of the method: (§4)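 Measures displacement of a PE-conjugated competitor (0.25 μg, 15 min, dark) after preincubation with 10 μg unlabeled antibody or isotype. CCR8+ CD4+ or CD3+ lymphocyte MFI is read by flow cytometry and reported as percent blocking relative to isotype.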

[6] = molecular target: T1, human CCR8; experiment: flow blocking, PBMC CCR8+CD4+; competitor PE-AB2
Summary of the method: as §4

[7] = molecular target: T1, human CCR8; experiment: flow blocking, PBMC CCR8+CD4+; competitor PE-AB3
Summary of the method: as §4

[8] = molecular target: T1, human CCR8; experiment: flow blocking, PBMC CCR8+CD4+; competitor PE-AB4
Summary of the method: as §4

[9] = molecular target: T1, human CCR8; experiment: flow blocking, PBMC CCR8+CD4+; competitor PE-AB5
Summary of the method: as §4

[10] = molecular target: T1, human CCR8; experiment: flow blocking, PBMC CCR8+CD4+; competitor PE-AB6
[11] = molecular target: T1, human CCR8; experiment: flow blocking, PBMC CCR8+CD3+; competitor PE-433H
Protocol: as §1, §2, §3

[12] = molecular target: T1, human CCR8; experiment: flow blocking, PBMC CCR8+CD3+; competitor PE-AB10
Protocol: as §1, §2, §3

[13] = molecular target: T1, human CCR8; experiment: flow blocking, PBMC CCR8+CD3+; competitor PE-AB11
Protocol: as §1, §2, §3

[14] = molecular target: T1, human CCR8; experiment: flow blocking, PBMC CCR8+CD3+; competitor PE-AB12
Protocol: as §1, §2, §3

[15] = molecular target: T1, human CCR8; experiment: flow blocking, PBMC CCR8+CD3+; competitor PE-AB13
Protocol: as §1, §2, §3

[16] = molecular target: T1, human CCR8; experiment: flow blocking, PBMC CCR8+CD3+; competitor PE-AB14
Protocol: as §1, §2, §3

[17] = molecular target: T1, human CCR8; experiment: flow blocking, PBMC CCR8+CD3+; competitor PE-AB15
Protocol: as §1, §2, §3

[18] = molecular target: T1, human CCR8; experiment: flow blocking, PBMC CCR8+CD4+; competitor PE-433H
Summary of the method: (§5)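 Human PBMC (100 μL suspension) were pre-blocked with 10 μg of each unlabelled anti-CCR8 antibody or isotype control. Cells were then stained 15 min in the dark with 0.25 μg of the PE-conjugated competitor antibody plus anti-CD4 or anti-CD3. Read-out by flow cytometry as MFI on CCR8+CD4+ or CCR8+CD3+ lymphocytes.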

[19] = molecular target: T1, human CCR8; experiment: flow blocking, PBMC CCR8+CD4+; competitor PE-AB10
Summary of the method: as §4

[20] = molecular target: T1, human CCR8; experiment: flow blocking, PBMC CCR8+CD4+; competitor PE-AB11
Summary of the method: as §4

[21] = molecular target: T1, human CCR8; experiment: flow blocking, PBMC CCR8+CD4+; competitor PE-AB12
Summary of the method: as §4

[22] = molecular target: T1, human CCR8; experiment: flow blocking, PBMC CCR8+CD4+; competitor PE-AB13
Summary of the method: as §5

[23] = molecular target: T1, human CCR8; experiment: flow blocking, PBMC CCR8+CD4+; competitor PE-AB14
Summary of the method: as §5

[24] = molecular target: T1, human CCR8; experiment: flow blocking, PBMC CCR8+CD4+; competitor PE-AB15
Summary of the method: as §4

[25] = molecular target: T1, human CCR8; experiment: flow blocking, PBMC CCR8+CD3+; competitor PE-L263G8
Protocol: as §1, §2, §3

T1 sequence (P51685 whole entry): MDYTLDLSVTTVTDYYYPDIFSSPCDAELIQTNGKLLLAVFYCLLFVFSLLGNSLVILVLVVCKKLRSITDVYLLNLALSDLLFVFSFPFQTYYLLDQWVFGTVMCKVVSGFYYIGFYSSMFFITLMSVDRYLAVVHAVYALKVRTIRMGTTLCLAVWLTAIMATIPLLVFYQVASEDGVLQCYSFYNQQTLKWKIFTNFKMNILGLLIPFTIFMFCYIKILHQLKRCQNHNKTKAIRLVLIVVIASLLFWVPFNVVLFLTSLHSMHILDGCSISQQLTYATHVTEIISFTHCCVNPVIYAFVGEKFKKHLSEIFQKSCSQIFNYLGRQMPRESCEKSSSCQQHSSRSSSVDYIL

B1: AB10 (antibody, V domains shown)
VH: EVQLVETGGGLVQPKGSLKLSCAVSGFTFKTNAMNWVRQAPGKGLEWVARIRSKSNKYATYYADSVKDRFTISRDDSQSMLYLQMNNLKTEDTAMYYCVRGSEMGYYYAMDYWGQGTSVTVSS
VL: DIVMTQAAPSVPVTPGESVSISCRSSKSLLHSNGNTYLYWFLQRPGQSPQLLIYRMSNLASGVPDRFSGSGSGTAFTLRISRVEAEDVGVYYCMQHLEYPFTFGGGTKLEIK
notes: Hybridoma monoclonal; also called antibody 10; clone 10
[1]
  % Blocking: -8.37%
  MFI: 1070
[2]
  % Blocking: -27%
  MFI: 1170
[3]
  % Blocking: 52.1%
  MFI: 559
[4]
  % Blocking: 51.6%
  MFI: 575
[5]
  % Blocking: -47.1%
  % Positive cells: 2.28%
[6]
  % Blocking: -40.2%
  % Positive cells: 2.3%
[7]
  % Blocking: -50.9%
  % Positive cells: 2.58%
[8]
  % Blocking: -38.8%
  % Positive cells: 2.47%
[9]
  % Blocking: -17.8%
  % Positive cells: 2.38%
[10]
  % Blocking: -7.92%
  % Positive cells: 2.18%
[11]
  % Blocking: 32.1%
  MFI: 602
[12]
  % Blocking: 30.7%
  MFI: 552
[13]
  % Blocking: 55.2%
  MFI: 416
[14]
  % Blocking: 47.6%
  MFI: 536
[15]
  % Blocking: 43.6%
  MFI: 499
[16]
  % Blocking: 38.9%
  MFI: 528
[17]
  % Blocking: 43.3%
  MFI: 487
[18]
  % Blocking: 28.4%
  % Positive cells: 1.26%
[19]
  % Blocking: 93.2%
  % Positive cells: 0.1%
[20]
  % Blocking: 98.5%
  % Positive cells: 0.03%
[21]
  % Blocking: 98.9%
  % Positive cells: 0.02%
[22]
  % Blocking: 97.5%
  % Positive cells: 0.05%
[23]
  % Blocking: 89.2%
  % Positive cells: 0.14%
[24]
  % Blocking: 88.4%
  % Positive cells: 0.15%
[25]
  % Blocking: 10.2%
  MFI: 605

B2: AB8 (antibody, V domains shown)
VH: AVQLVESGGGLVQPKESLKISCAASGFIFSNAAMYWVRQAPGKGLQWVARIRTKPKNYATYYIDSVKGRFTISRDDSKSMVYLQMDNLKTEDTAMYYCNTMGLTRAYYFDYWGQGVMVTVSS
VL: DIQMTQSPSFLSASVGDRVTINCKASQNINRYLNWYQQKLGEAPKLLIYNANSLQTGIPSRFSGSGSGTDFTLTIRSLQPEDVATYFCLQHNSWPWTFGGGTKLELK
notes: Hybridoma monoclonal; also called antibody 8; clone 8
[1]
  % Blocking: -11.8%
  MFI: 1100
[2]
  % Blocking: -17.3%
  MFI: 1080
[3]
  % Blocking: 26.1%
  MFI: 863
[4]
  % Blocking: 26.9%
  MFI: 870
[5]
  % Blocking: -41.9%
  % Positive cells: 2.2%
[6]
  % Blocking: -38.4%
  % Positive cells: 2.27%
[7]
  % Blocking: -27.5%
  % Positive cells: 2.18%
[8]
  % Blocking: -19.7%
  % Positive cells: 2.13%
[9]
  % Blocking: -8.42%
  % Positive cells: 2.19%
[10]
  % Blocking: -14.4%
  % Positive cells: 2.31%
[11]
  % Blocking: 53%
  MFI: 417
[12]
  % Blocking: 23.7%
  MFI: 608
[13]
  % Blocking: 45.9%
  MFI: 502
[14]
  % Blocking: 48.4%
  MFI: 527
[15]
  % Blocking: -50.2%
  MFI: 1330
[16]
  % Blocking: 46.4%
  MFI: 463
[17]
  % Blocking: 45.2%
  MFI: 471
[18]
  % Blocking: 92.6%
  % Positive cells: 0.13%
[19]
  % Blocking: 91.2%
  % Positive cells: 0.13%
[20]
  % Blocking: 98.5%
  % Positive cells: 0.03%
[21]
  % Blocking: 98.9%
  % Positive cells: 0.02%
[22]
  % Blocking: 93.4%
  % Positive cells: 0.13%
[23]
  % Blocking: 96.9%
  % Positive cells: 0.04%
[24]
  % Blocking: 98.5%
  % Positive cells: 0.02%
[25]
  % Blocking: 13.1%
  MFI: 585
